Series [1] can be described thus: Enzyme assay: free fatty acid release from phospholipid substrates (NEFA-C kit). It counts as biochemical. The settings on record: for activity increase by pre-incubation with released materials from PMA-induced neutrophils: partly activated protein 0.5 μg stored for 19 weeks. The protocol:
Enzyme assay. The reaction mixture (40 μl final volume) contained 10 mM substrates, 100 mM phosphate buffer containing 3 mM of sodium azide (NaN3) and 0.5% Triton X-100, pH 7.4, and 0.5 μg of enzyme or as indicated. Since the formation of the product (fatty acid) was linear with time for at least 24 h under the standard conditions, the reaction mixture was incubated for 18-20 h and the reaction was stopped by cooling on ice. Free fatty acid (FFA) was determined by means of the NEFA-C kit (WAKO chemicals, Neuss, Germany) according to the instructions of the manufacturer.
Experiment A: Didecanoyl-PC was incubated with the purified protein at different time of storage and free fatty acid release was measured. Enzymatic reactions were carried out with 0.5 μg of the purified protein for 20 h at 37° C.
Experiment B: Free fatty acid release from phospholipids, didecanoyl-PC (Dideca-PC), dipalmitoyl-PC (Dipalmi-PC), phosphatidylinositol (PI), phosphatidylethanolamine (PE) and lysophosphatidylcholine (Lyso-PC) was measured. Enzymatic reactions were carried out with 0.5 μg of the purified protein (stored at 4° C. for 15 w) for 18-20 h at 37° C.
Experiment C: The purified protein (stored at 4° C. for 16 w) was preincubated at room temperature or 37° C. for 15 min with released materials (0.5 μg) induced from neutrophils by PMA before incubation with Didecanoyl-PC. Enzymatic reactions were carried out with 0.5 μg of the protein for 20 h at 37° C. and free fatty acid release was measured.
Analyses of the pH optimum, Km and Vmax. The purified protein (0.5 μg) was added to tubes containing Didecanoyl-PC at varying pH (4.0-9.0). The Km and Vmax were calculated from Hanes plots of s/vi on Didecanoyl-PC concentration (s).

A short description of series [2]: Positional specificity (sn-2) assay with radiolabeled phosphatidylcholine. The settings on record: 1-palmitoyl-2-[1-14C]palmitoyl-PC, 20 h at 37° C. In kind it is biochemical. The protocol:
Positional specificity of the purified enzyme was determined using 1-palmitoyl-2-hydroxyl-phosphatidylcholine (1-palmitoyl-2-hydroxyl-PC) and 1-palmitoyl-2-[1-^14C]palmitoyl-phosphatidylcholine (1-palmitoyl-2-[1-^14C]palmitoyl-PC) as substrates. The hydrolyzing activity of the enzyme at the position of sn-1 acyl ester bonds of glycerophospholipids was determined as described above using 1-palmitoyl-2-hydroxyl-PC as substrate. […] Radiolabeled fatty acids were quantified by scintillation counting.
Experiment D: Detection of phopholipase A2 activity. Radioactive phospholipid, 1-palmitoyl-2-[1-^14C]palmitoyl-PC was incubated without (Control) or with 1 μg of the purified protein (stored at 4° C. 16 w) for 20 h at 37° C. and radioactivity was counted as described in the materials and methods section.

B1: HPLB-II: Novel phospholipase B from human neutrophil granules; about 130 kDa oligomer of 25 and 45 kDa fragments of hypothetical protein FLJ22662 (protein)
chain 1: MPAEKTVQVKNVMDKNGDAYGFYNNSVKTTGWGILEIRAGYGSQTLSNEIIMFVAGFLEGYLTAPHMNDHYTNLYPQLITKPSIMDKVQDFMEKQDKWTRKNIKEYKTDSFWRHTGYVMAQIDGLYVGAK
chain 2: VLPGFENILFAHSSWYTYAAMLRIYKHWDFNIIDKDTSSSRLSFSSYPGFLESLDDFYILSSGLILLQTTNSVFNKTLLKQVIPETLLSWQRVRVANMMADSGKRWADIFSKYNSGTYNNQYMVLDLKKVKLNHSLDKGTLYIVEQIPTYVEYSEQTDVLRKGYWPSYNVPFHEKIYNWSGYPLLVQKLGLDYSYDLAPRAKIFRRDQGKVTDTASMKYIMRYNNYKKDPYSRGDPCNTICCREDLNSPNPSPGGCYDTKVADIYLASQYTSYAISGPTVQGGLPVFRWDRFNKTLHQGMAEVYNFDFITMKPILK
In general, Vmax refers to the rate approached at saturating substrate. Molecule B1 had a pH optimum in series [1] (didecanoyl-PC as substrate, incubated at 37° C.) of 7.4. Further, the maximal velocity (Vmax) in series [1] (didecanoyl-PC substrate, Hanes plots, protein stored for 15 weeks) is reported as 21.4 nM/min/mg. Further, the deacylation activity result in series [1] (freshly purified protein, didecanoyl-PC, dipalmitoyl-PC, PI, PE, Lyso-PC substrates) was “No activity was detected”. Further, the “activity increase by pre-incubation with released materials from PMA-induced neutrophils” value in series [1] (pre-incubation 15 min at 37° C.) is around 30%. Moreover, the “activity increase by pre-incubation with released materials from PMA-induced neutrophils” value in series [1] (pre-incubation 15 min at room temperature) was “about 10%”. Further, the “deacylation activity on didecanoyl-PC” value in series [1] (purified protein stored at 4° C. for some period of time) was “removed fatty acid from didecanoyl-PC”. Also, in series [1] (stored purified protein), the “deacylation activity on Lyso-PC” value is recorded as “showed deacylation activity”, the “deacylation activity on PE” value is given as “showed deacylation activity” and the “deacylation activity on PI” value is “showed deacylation activity”. Also, the “removal of fatty acid from the sn-2 position” value in series [2] was “removed fatty acid from the sn-2 position”.

(Values after US8288112B2, “Protein, an antibody and measurement of the protein” (P&M Venge AB, priority 2006, dated 2012).)
